From US10143747B2, “Breast cancer therapeutics” (IMBA—INSTITUT FÜR MOLEKULARE BIOTECHNOLOGIE GMBH, priority 2010, dated 2018)

Tests used:
Assay type in all cases: cell-based
Details in all cases: RANKL 1 μg/ml
[1] = tested on: primary mouse mammary gland epithelial cells (MECs); test: Western blotting of RANKL-stimulated primary mouse mammary gland epithelial cells
Description: a, Western blotting for phosphorylated (P) IKKα, total IKKα, phosphorylated (P) p65 NFκB, total p65 NFκB, phosphorylated (P) IκBα, and total IκBα in isolated primary mouse mammary gland epithelial cells (MECs) in response to RANKL stimulation (1 μg/ml). β-actin is shown as loading control. b, Western blotting for IKKα, IKKβ, IKKγ, phosphorylated (P) p65 NFκB, total p65 NFκB, phosphorylated (P) IκBα, and total IκBα in pooled late stage mammary adenocarconimas (n=4 for each lane) that developed in control, RANK^Δmam and IKKΔ^Δmam females. β-actin is shown as loading control c, Expression of RANK, CyclinD1, and p21 mRNA in late stage mammary adenocacinomas that developed in control, RANK^Δmam, and IKKα^Δmam females. Expression was determined by qRT-PCR. Data are mean values+/−sem. n=4 per group. d, Soft-Agar Colony Formation Assay. Growth of human SKBR3 breast cancer cells in soft agar in response to stimulation with RANKL (1 μg/ml) or EGF (100 ng/ml). Anchorage-independent, macroscopic colonies formed after 18 days in culture with RANKL, which was prevented by the decoy receptor OPG (1 μg/ml). […] Apoptosis was detected by immunostaining for active Caspase 3. f, Apoptotic nuclei of epithelial cells (arrows) are shown for representative mammary gland sections. Magnifications×40. g, Quantification of mammary epithelial apoptosis. A minimum of 5000 nuclei was counted for each mouse. […]

[2] = tested on: primary mouse mammary epithelial cells; test: DNA damage responses (cell cycle arrest, apoptosis) in primary mouse mammary epithelial cells
Description: (§1) a, Western Blot analysis for γH2AX, phosphorylated (P) Chk1, total Chk1, p53 and β-actin in isolated primary mouse mammary gland epithelial cells in response to γ-irradiation (2 Gray) in the presence (1 μg/ml) or absence of RANKL stimulation. b,c, FACS analysis of propidium iodide (PI) stained b, mammary epithelial cells and c, SKBR3 human breast cancer cells after γ-irradiation (2 Gray) in the absence or presence (1 μg/ml) of RANKL. Data are representative of at least 3 experiments. Apoptotic cells with a DNA content <2n appear in the sub-G1 region. Percent of cells in sub-G1 (M1), G1-phase (M2), S/G2/M-phase (M3) as well as polyploid cells with a DNA content >4n are given for the indicated time points.
(§2) a,b, FACS analysis of a, mammary epithelial cells and b, SKBR3 human breast cancer cells incubated with the genotoxic agent doxorubicin (Dox, 1 μM) in the presence (1 μg/ml) or absence of RANKL. Data are representative of at least 3 experiments. Percent of cells in sub-G1 (M1), G1-phase (M2), S/G2/M-phase (M3) as well as polyploid cells with a DNA content >4n are given for 24 and 36 hours after doxorubicin treatment. c, mRNA expression of pro-apoptotic genes Bim, Puma, and Noxa 6 hours after γ-irradiation (2 Gray) in the presence (1 μg/ml) or absence of RANKL stimulation. Data are shown as fold change compared to control (+/−sem). n=3). *P<0.05; **P<0.005 (Student's t-test).
(§3) For measurement of cell cycle arrest and apoptosis primary mouse mammary epithelial cells and SKBR3 human breast cancer cells were seeded at a cell-density of 100000 cells/well in a 6-well plate and allowed to grow for 24 hours. Cells where then treated with doxorubicin (1 μM) or γ-irradiation (2 Gray) in the absence or presence of recombinant RANKL (1 μg/ml). Cell cycle arrest and numbers of dead cells were determined using propidium iodine staining. To determine in vivo mammary gland epithelial cell death, control and RANK^Δmam littermate females were γ-irradiated with a total dose of 5 Gray (Gy). Six hours later, mammary glands were isolated and immunostained for active Caspase 3 (Cell Signaling) indicative of apoptosis.

[3] = tested on: SKBR3 human breast cancer cells; test: DNA damage responses (cell cycle arrest, apoptosis) in SKBR3 cells
Description: as §1, §2, §3

B1: RANKL: recombinant RANKL protein, ligand of RANK, used as stimulus (1 μg/ml or 1 μg i.p.) (protein, UniProt O35235 139-316, looked up)
Tumor necrosis factor ligand …: FSGAPAMMEGSWLDVAQRGKPEAQPFAHLTINAASIPSGSHKVTLSSWYHDRGWAKISNMTLSNGKLRVNQDGFYYLYANICFRHHETSGSVPTDYLQLMVYVVKTSIKIPSSHNLMKGGSTKNWSGNSEFHFYSINVGGFFKLRAGEEISIQVSNPSLLDPDQDATYFGAFKVQDID
[1]
  p65 NFκB and IκBα phosphorylation: resulted in p65 NFκB and IκBα phosphorylation
  phosphorylation of p38-MAPKs and ERK: triggered phosphorylation of p38-MAPKs and ERK
[2]; 6 hours after γ-irradiation 2 Gray, cell type not stated
  γ-irradiation-induced upregulation of proapoptotic Bim, Puma and Noxa mRNA: did not occur in the presence of RANKL
[2]; doxorubicin 1 μM
  early cell cycle arrest after DNA damage: did not alter the early cell cycle arrest
  protection from cell death: marked protection from cell death
[2]; γ-irradiation 2 Gray
  early cell cycle arrest after DNA damage: did not alter the early cell cycle arrest
  induction of γH2AX and p53, activation of Chk1 (DNA damage response markers): did not alter induction of γH2AX and p53 or activation of Chk1
  protection from cell death: marked protection from cell death
[3]; doxorubicin 1 μM
  early cell cycle arrest after DNA damage: did not alter the early cell cycle arrest
  protection from cell death: marked protection from cell death
[3]; γ-irradiation 2 Gray
  early cell cycle arrest after DNA damage: did not alter the early cell cycle arrest
  protection from cell death: marked protection from cell death
